Results taken from article PMC12246476, “Enhancement of enzymatic activity by biomolecular condensates through pH buffering” (Nature Communications, 2025).

Legend:
[1] = molecular target: T1, Aryl Alcohol Oxidase (AAOx) (Pleurotus eryngii, UniProt O94219); assay: absorbance of cinnamyl aldehyde at […] nm; type: biochemical; conditions: 5 nM enzyme, 250 µM substrate, pH 5.5-7.5, 10 mM ionic strength Tris/Bis-Tris, 30 mM NaCl
T1 construct: gene aao; N-terminal His-tag, pET-15b, E. coli BL21-GOLD; FAD added during purification; IMAC and SEC
T1 sequence (O94219 22-593): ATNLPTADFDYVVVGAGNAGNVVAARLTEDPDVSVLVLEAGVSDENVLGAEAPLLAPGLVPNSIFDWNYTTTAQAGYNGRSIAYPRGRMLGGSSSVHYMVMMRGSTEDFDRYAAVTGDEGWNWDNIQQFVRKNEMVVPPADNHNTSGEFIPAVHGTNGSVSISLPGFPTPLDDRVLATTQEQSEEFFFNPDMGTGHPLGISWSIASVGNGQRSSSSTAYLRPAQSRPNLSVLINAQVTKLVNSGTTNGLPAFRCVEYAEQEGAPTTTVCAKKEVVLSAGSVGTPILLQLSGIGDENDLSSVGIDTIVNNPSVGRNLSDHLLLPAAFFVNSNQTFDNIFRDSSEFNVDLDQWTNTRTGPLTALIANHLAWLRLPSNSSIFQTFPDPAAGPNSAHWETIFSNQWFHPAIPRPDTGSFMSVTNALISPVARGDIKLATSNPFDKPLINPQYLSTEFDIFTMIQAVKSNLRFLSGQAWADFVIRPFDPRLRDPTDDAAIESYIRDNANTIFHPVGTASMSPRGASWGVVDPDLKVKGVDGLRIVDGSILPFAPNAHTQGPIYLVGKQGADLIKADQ

[2] = substrate: CCCC(=O)Oc1ccc2c(C)cc(=O)oc2c1; assay: fluorescence of released 4-methylumbelliferone, initial rates, Michaelis-Menten fit; type: biochemical, Geobacillus thermocatenulatus; conditions: homogeneous enzyme, 0.5 µM, 24 mM Tris, 10 mM NaCl, pH 7.5, substrate solubility kept concentrations below the KM
From the text: fluorescence of released 4-methylumbelliferone, initial rates, Michaelis-Menten fit on BTL2 (Bacillus thermocatenulatus Lipase 2)

Molecule	absorbance of cinnamyl aldehyde at 310 nm [1]	Km [2]	Vmax [2]	kcat [2]
OC/C=C/c1ccccc1 [CAlc, Cinnamyl Alcohol]	measuring the rate of the oxidation reaction of CAlc to CAld catalyzed by AAOx	–	–	–
BTL2 (Bacillus thermocatenulatus Lipase 2) (Geobacillus thermocatenulatus) (protein, N-terminal His-tag, pET-15b, E. coli BL21-GOLD; IMAC and SEC) ASPRANDAPIVLLHGFTGWGREEMLGFKYWGGVRGDIEQWLNDNGYRTYTLAVGPLSSNWDRACEAYAQLVGGTVDYGAAHAAKHGHARFGRTYPGLLPELKRGGRVHIIAHSQGGQTARMLVSLLENGSQEEREYAKAHNVSLSPLFEGGHHFVLSVTTIATPHDGTTLVNMVDFTDRFFDLQKAVLKAAAVASNVPYTSQVYDFKLDQWGLRRQPGESFDHYFERLKRSPVWTSTDTARYDLSIPGAEKLNQWVQASPNTYYLSFSTERTHRGALTGNYYPELGMNAFSAVVCAPFLGSYRNEALGIDDRWLENDGIVNTVSMNGPKRGSSDRIVPYDGTLKKGVWNDMGTCNVDHLEVIGVDPNPSFDIRAFYLRLAEQLASLRP	–	713 ± 281 µM	126 µM/min	4.3 ± 1.2 s⁻¹
